Numbered stars: 1 amine (or outer) side, 2 acyl side, 3 side chain; on linkers, the order of the positions; unused ones are H or OH. Bridge positions count the residues as written; N and C are the ends. Square brackets hold non-standard residues; d marks the D form. Side chains are listed from the residue outwards. Ends that are not written are not given here. * marks the point of attachment. C20 diacid = O=C(O)CCCCCCCCCCCCCCCCCCC(=O)*; γGlu = O=C(O)[C@H](CCC(=O)[*:2])N[*:1]
How the values were obtained:
[1] = molecular target: T1, human amylin 3(a) receptor (human calcitonin receptor + RAMP-3) (human, UniProt P30988 25-474; O60896 24-148, limits assumed); assay: cell-based or functional assay
T1 sequence (looked up) 1: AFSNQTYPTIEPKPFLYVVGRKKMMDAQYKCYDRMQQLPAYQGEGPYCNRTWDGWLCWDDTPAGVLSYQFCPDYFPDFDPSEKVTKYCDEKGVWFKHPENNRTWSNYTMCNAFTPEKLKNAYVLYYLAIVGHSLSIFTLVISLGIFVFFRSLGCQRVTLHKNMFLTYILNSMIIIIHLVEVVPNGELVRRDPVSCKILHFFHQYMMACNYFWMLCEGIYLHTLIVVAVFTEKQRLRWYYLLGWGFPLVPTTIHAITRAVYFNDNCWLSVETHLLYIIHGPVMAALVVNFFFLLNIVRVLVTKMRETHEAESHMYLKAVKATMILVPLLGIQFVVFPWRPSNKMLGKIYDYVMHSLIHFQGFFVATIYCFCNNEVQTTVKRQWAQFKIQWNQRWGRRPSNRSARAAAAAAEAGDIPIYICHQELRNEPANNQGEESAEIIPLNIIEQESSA
T1 sequence (looked up) 2: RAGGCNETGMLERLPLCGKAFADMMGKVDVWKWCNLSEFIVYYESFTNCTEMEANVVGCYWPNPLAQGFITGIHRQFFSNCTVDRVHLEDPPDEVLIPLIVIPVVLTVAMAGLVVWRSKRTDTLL

[2] = molecular target: T2, human calcitonin receptor (human, UniProt P30988 25-474); assay: cell-based or functional assay
T2 sequence (looked up): T1 sequence (looked up) 1

[3] = molecular target: T1, human amylin 3(a) receptor (human …); assay: SPA competition binding, membranes of BHK cells with human calcitonin receptor + RAMP-3, displacement of 125I-rat amylin (Assay V)
Description: (§1) The binding assay was performed using scintillation proximity assay (SPA) beads (RPNQ0001) from PerkinElmer and cell membranes from the Amylin 3(a)/CRE-luc cells (as described in Assay (II)) were used. Membranes were prepared in the following way; the cells were rinsed with PBS and incubated with Versene for approximately 5 min before harvesting. The cells were flushed with PBS and the cell-suspension was centrifuged for 5 min at 1000 rpm. Cells were homogenized (ultrathurrax) in a buffer containing 20 mM Na-HEPES and 10 mM EDTA (pH 7.4) and centrifuged at 20.000 rpm for 15 min. The resulting pellet was resuspended, homogenized and centrifuged (20.000 rpm, 15 min) in a buffer containing 20 mM Na-HEPES and 0.1 mM EDTA (pH 7.4, buffer 2). The resulting pellet was resuspended in buffer 2 and protein concentration was measured (BCA protein Assay, Pierce). The homogenate was kept cold during the whole procedure. The membranes were kept at −80° C. until use. The assay was performed in a 384 well Optiplate (PerkinElmer) in a total volume of 40 ul. Membranes were mixed with SPA beads. Final concentration of membranes 35 ng/μL final and SPA beads was 0.05 mg/well. Test-compounds were dissolved in DMSO and further diluted in assay buffer (50 mM Hepes, pH 7.4, 1 mM CaCl2, 5 mM MgCl₂, 0.1% OA and 0.02% Tween20). […] The final mixture was incubated with shaking at 400 rpm for 120 min at 25° C. prior to centrifugation (1500 rpm, 10 min). Samples were analyzed on TopCounter™ (Packard). The IC₅₀ was calculated using (one site binding competition analysis) GraphPad Prism5 as a measure of receptor affinity.

[4] = molecular target: T3, human amylin 3(a) receptor (human calcitonin receptor co-expressed with RAMP-3) (human, UniProt P30988 25-474; O60896 24-148, limits assumed); assay: cell-based or functional assay
T3 sequence (looked up) 1: T1 sequence (looked up) 1
T3 sequence (looked up) 2: T1 sequence (looked up) 2

[5] = molecular target: T4, human calcitonin receptor (human, UniProt P30988 25-474); assay: cell-based or functional assay; remark: listed apart in the source
T4 sequence (looked up): T1 sequence (looked up) 1

[6] = molecular target: T5, human amylin 3(a) receptor (human calcitonin receptor co-expressed with RAMP-3) (human, UniProt P30988 25-474; O60896 24-148, limits assumed); assay: cell-based or functional assay; remark: listed apart in the source
T5 sequence (looked up) 1: T1 sequence (looked up) 1
T5 sequence (looked up) 2: T1 sequence (looked up) 2

[7] = molecular target: T6, human calcitonin receptor (human, UniProt P30988 25-474); assay: cell-based or functional assay; remark: listed apart in the source
T6 sequence (looked up): T1 sequence (looked up) 1

[8] = molecular target: T5, human amylin 3(a) receptor (human …); assay: SPA competition binding (Assay V): displacement of 125I-rat amylin from membranes of BHK cells with human calcitonin receptor + RAMP-3
Description: as §1

B1: N^α1-[(4S)-4-carboxy-4-(19-carboxynonadecanoylamino)butanoyl]-[Glu14,Arg17,Pro21,Pro26,Pro37]-h-amylin (peptide)
peptide: {C20 diacid-γGlu}-KCNTATCATQRLAEFLRHSSPNFGAPLSSTNVGSNTP-NH2
modifications: disulfide 2-7
SMILES: CC(C)C[C@H](NC(=O)[C@H](CCCNC(=N)N)NC(=O)[C@H](CCC(N)=O)NC(=O)[C@@H](NC(=O)[C@H](C)NC(=O)[C@@H]1CSSC[C@H](NC(=O)[C@H](CCCCN)NC(=O)CC[C@H](NC(=O)CCCCCCCCCCCCCCCCCCC(=O)O)C(=O)O)C(=O)N[C@@H](CC(N)=O)C(=O)N[C@@H]([C@@H](C)O)C(=O)N[C@@H](C)C(=O)N[C@@H]([C@@H](C)O)C(=O)N1)[C@@H](C)O)C(=O)N[C@@H](C)C(=O)N[C@@H](CCC(=O)O)C(=O)N[C@@H](Cc1ccccc1)C(=O)N[C@@H](CC(C)C)C(=O)N[C@@H](CCCNC(=N)N)C(=O)N[C@@H](Cc1c[nH]cn1)C(=O)N[C@@H](CO)C(=O)N[C@@H](CO)C(=O)N1CCC[C@H]1C(=O)N[C@@H](CC(N)=O)C(=O)N[C@@H](Cc1ccccc1)C(=O)NCC(=O)N[C@@H](C)C(=O)N1CCC[C@H]1C(=O)N[C@@H](CC(C)C)C(=O)N[C@@H](CO)C(=O)N[C@@H](CO)C(=O)N[C@H](C(=O)N[C@@H](CC(N)=O)C(=O)N[C@H](C(=O)NCC(=O)N[C@@H](CO)C(=O)N[C@@H](CC(N)=O)C(=O)N[C@H](C(=O)N1CCC[C@H]1C(N)=O)[C@@H](C)O)C(C)C)[C@@H](C)O
notes: also called compound 5
hAmylin-R funct. EC50 (pM) [1]: 162 pM | Ratio hCT/hAmylin funct. [2]: 1 | IC50 [3]: 0.374 nM

{C20 diacid-γGlu}-KCNTATCATQRLAEFLRHSSPNFGAILPSTNVGSETY-NH2 (disulfide 2-7, also called compound 33)
hAmylin-R funct. EC50 (pM) [1]: 243 pM | Ratio hCT/hAmylin funct. [2]: 2.2 | IC50 [3]: 0.915 nM

K([γGlu-C20 diacid])CNTATCATQRLADFLRHSSPNFGAIPSSTNVGPETY-NH2 (disulfide 2-7 (inferred))
Ratio hCT/hAmylin funct. [4]: 3.9 | hCTR funct. EC50 (pM) [5]: 1120 pM

K([γGlu-γGlu-C20 diacid])CNTATCATQRLAEFLRHSSPNFGAIPSSTNVGPETP-NH2 (disulfide 2-7 (inferred))
Ratio hCT/hAmylin funct. [4]: 0.8 | hCTR funct. EC50 (pM) [5]: 102 pM

B2: N^ε1-[(4S)-4-carboxy-4-(19-carboxynonadecanoylamino)butanoyl]-[Asp14,Arg17,Pro21,Pro27,Pro34,Arg35]-h-amylin (peptide)
peptide: K([γGlu-C20 diacid])CNTATCATQRLADFLRHSSPNFGAIPSSTNVGPRTY-NH2
modifications: disulfide 2-7; N-terminus assumed
SMILES: CC[C@H](C)[C@H](NC(=O)[C@H](C)NC(=O)CNC(=O)[C@H](Cc1ccccc1)NC(=O)[C@H](CC(N)=O)NC(=O)[C@@H]1CCCN1C(=O)[C@H](CO)NC(=O)[C@H](CO)NC(=O)[C@H](Cc1c[nH]cn1)NC(=O)[C@H](CCCNC(=N)N)NC(=O)[C@H](CC(C)C)NC(=O)[C@H](Cc1ccccc1)NC(=O)[C@H](CC(=O)O)NC(=O)[C@H](C)NC(=O)[C@H](CC(C)C)NC(=O)[C@H](CCCNC(=N)N)NC(=O)[C@H](CCC(N)=O)NC(=O)[C@@H](NC(=O)[C@H](C)NC(=O)[C@@H]1CSSC[C@H](NC(=O)[C@@H](N)CCCCNC(=O)CC[C@H](NC(=O)CCCCCCCCCCCCCCCCCCC(=O)O)C(=O)O)C(=O)N[C@@H](CC(N)=O)C(=O)N[C@@H]([C@@H](C)O)C(=O)N[C@@H](C)C(=O)N[C@@H]([C@@H](C)O)C(=O)N1)[C@@H](C)O)C(=O)N1CCC[C@H]1C(=O)N[C@@H](CO)C(=O)N[C@@H](CO)C(=O)N[C@H](C(=O)N[C@@H](CC(N)=O)C(=O)N[C@H](C(=O)NCC(=O)N1CCC[C@H]1C(=O)N[C@@H](CCCNC(=N)N)C(=O)N[C@H](C(=O)N[C@@H](Cc1ccc(O)cc1)C(N)=O)[C@@H](C)O)C(C)C)[C@@H](C)O
Ratio hCT/hAmylin funct. (hCTR EC50 over hAmylin-R EC50) [6]: 24.9 | hAmylin-R funct. EC50 (CRE luciferase reporter, BHK cells) [6]: 0.146 nM | hCTR funct. EC50 (CRE luciferase reporter, BHK cells) [7]: 3.64 nM | IC50 [8]: 0.281 nM

B3: N^ε1-[(4S)-4-carboxy-4-[[(4S)-4-carboxy-4-(19-carboxynonadecanoylamino)butanoyl]amino]butanoyl]-[D-Asp14,Arg17,Pro21,Pro27,Arg35]-h-amylin (peptide)
peptide: K([γGlu-γGlu-C20 diacid])CNTATCATQRLA[dD]FLRHSSPNFGAIPSSTNVGSRTY-NH2
modifications: disulfide 2-7; N-terminus assumed
SMILES: CC[C@H](C)[C@H](NC(=O)[C@H](C)NC(=O)CNC(=O)[C@H](Cc1ccccc1)NC(=O)[C@H](CC(N)=O)NC(=O)[C@@H]1CCCN1C(=O)[C@H](CO)NC(=O)[C@H](CO)NC(=O)[C@H](Cc1c[nH]cn1)NC(=O)[C@H](CCCNC(=N)N)NC(=O)[C@H](CC(C)C)NC(=O)[C@H](Cc1ccccc1)NC(=O)[C@@H](CC(=O)O)NC(=O)[C@H](C)NC(=O)[C@H](CC(C)C)NC(=O)[C@H](CCCNC(=N)N)NC(=O)[C@H](CCC(N)=O)NC(=O)[C@@H](NC(=O)[C@H](C)NC(=O)[C@@H]1CSSC[C@H](NC(=O)[C@@H](N)CCCCNC(=O)CC[C@H](NC(=O)CC[C@H](NC(=O)CCCCCCCCCCCCCCCCCCC(=O)O)C(=O)O)C(=O)O)C(=O)N[C@@H](CC(N)=O)C(=O)N[C@@H]([C@@H](C)O)C(=O)N[C@@H](C)C(=O)N[C@@H]([C@@H](C)O)C(=O)N1)[C@@H](C)O)C(=O)N1CCC[C@H]1C(=O)N[C@@H](CO)C(=O)N[C@@H](CO)C(=O)N[C@H](C(=O)N[C@@H](CC(N)=O)C(=O)N[C@H](C(=O)NCC(=O)N[C@@H](CO)C(=O)N[C@@H](CCCNC(=N)N)C(=O)N[C@H](C(=O)N[C@@H](Cc1ccc(O)cc1)C(N)=O)[C@@H](C)O)C(C)C)[C@@H](C)O
hAmylin-R funct. EC50 (CRE luciferase reporter, BHK cells) [6]: 0.383 nM | hCTR funct. EC50 (CRE luciferase reporter, BHK cells) [7]: 100 nM | IC50 [8]: 0.365 nM

K([γGlu-γGlu-C20 diacid])CNTATCATQRLADFLRHSSPNFGAIPSSTNVGPRTY-NH2 (disulfide 2-7, also called compound 130)
Ratio hCT/hAmylin funct. (hCTR EC50 over hAmylin-R EC50) [6]: 44.9 | hAmylin-R funct. EC50 (CRE luciferase reporter, BHK cells) [6]: 0.162 nM | hCTR funct. EC50 (CRE luciferase reporter, BHK cells) [7]: 7.28 nM | IC50 [8]: 0.453 nM

Reference: patent publication US20140087995A1 (published 2014)
